Source: the nanobody polyreactivity screen of Harvey et al. (2022)

Test: yeast display, Sf9 membrane polyspecificity reagent, FACS + sequencing; frameworks hold sequencing errors
Method in brief: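 Using colony PCR, genes from sorted yeast display clones were amplified, then sequenced on MiSeq at 2 × 250 and filtered by CDR length. The clones had been stained with 10% biotinylated, detergent-solubilized Sf9 membrane reagent for 1 hour at 4 °C and sorted by FACS into low and high (top ~1%) gates on anti-HA and streptavidin fluorescence. Polyreactivity labels come from the gate of origin.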

Row | Sequence | polyreactivity (PSR sort gate)
1 | QVQLVESGGGLVQAGGSLRLSCAASGITFYGYAMGWYRQAPGKERELVAAITRGGSTNYADSVKGRFTISRDNAKITPYLQMNSLKPEDTAVYYCNTYVGRRPGYGYWGQGTQVTVSS | high polyreactivity
2 | QVQLVESGGGLVQAGGSLRLSCAASGITFYGYAMGWYRQAPGKERELVAAITRGGSTNYADSVKGRFTISRDNAKNTVYLQMNSLKPEDTAVYYCAAEYSVYWYYRYEYWGQGTQVTVSS | high polyreactivity
3 | QVQLVESGGGLVQAGGSLRLSCAASGITFYGYAMGWYRQAPGKERELVARITASGGSTYYADSVKGRFTISRDNAKNTVYLQMKSLKPEVTAVYYCAKDWYRYSRFDYWGQGTQVTVSS | high polyreactivity
4 | QVQLVESGGGLVQAGGSLRLSCAASGITFYGYDKGWYRQAPGKERELGAAITSDGITNYADSVKGRFTISRDNAKNTVYLQMNSLKPEDTAVYYCAADLSFYRRYEWYYYWGQGTQVTVSS | low polyreactivity
5 | QVQLVESGGGLVQAGGSLRLSCAASGITFYGYDMGWYRQAPAKERELVAAITSDGITNYADSVKGRFTISRDNAKNTVYLQMNSLKPEDTAVYYCNAVFRPGSFLYDWRAYDYWGQGTQVTVSS | low polyreactivity
6 | QVQLVESGGGLVQAGGSLRLSCAASGITFYGYTMGWYRQAPGKERELVAAITSGGITYYADSVKGRFTISRDNAKNTVYLQMNSLKPEDTAVYYCNADDVWYEYDYWGEGTQVTVSS | high polyreactivity
7 | QVQLVESGGGLVQAGGSLRLSCAASGITFYHYAMGWYRQAPGKERELVAAISSDDNTNYADSVKGRFTISRDNEKNTVYLQMNSLNPEVTAVYYCNKRSLKNEPRYDYWGQGTQVTVSS | high polyreactivity
8 | QVQLVESGGGLVQAGGSLRLSCAASGITFYIYAMGWYRQAPGKERELVATISWSDGRTYYADSVKGRFTISRDNAKTTVYLQMNSLKPEDTAVYYCAADWWYYQFDYEYWGQGTQVTVSS | low polyreactivity
9 | QVQLVESGGGLVQAGGSLRLSCAASGITFYPNDMGWYRQAPGKERELVAAITTNDGDTYYADSVKGRFTISRDKAKNTVYLQMNSLKPEDTAVYYCAAASGSTSEYEYWGQGTQVTVSS | low polyreactivity
10 | QVQLVESGGGLVQAGGSLRLSCAASGITFYPYTMGWYRQAPGKERELVASISTSGTNYADSVKGRFTISRDNAKNTVYLQMNSLKPEDTAVYYCAADIWSYYRSTHVDSWGQGTQVTVSS | low polyreactivity
11 | QVQLVESGGGLVQAGGSLRLSCAASGITFYRNAMGWYRQAPGKEREFVAAITSSGGSTYYADSVKGRFTISRDNAKNTVYLQMNSLKPEDTAVYYCRPGRWRVSHKYDYWGQGTQVTVSS | high polyreactivity
12 | QVQLVESGGGLVQAGGSLRLSCAASGITFYRYAKGSYRQAPGKERELVAAIRRAGSTYYADSVKGRVTISRDNAKKTVYLQMNSLKPEDTAVYYCNARYGIGMNYWGQGTQVTVSS | high polyreactivity
13 | QVQLVESGGGLVQAGGSLRLSCAASGITFYRYAMGWYRQAPGKERELVAAISTSGGTTYYADSVKERFTISRDNAKNTVYLQMNSLKPEDTAVYYCAAQYLRWSRMDYWGQGTQVTVSS | high polyreactivity
14 | QVQLVESGGGLVQAGGSLRLSCAASGITFYRYAMGWYRQAPGKERELVAAITSSGGSTYYADSVKGRFTISRDNAKNTVYLQMNSLKPQDTAVYYCAARDLGRYPPKLYYWGQGTQVTVSS | high polyreactivity
15 | QVQLVESGGGLVQAGGSLRLSCAASGITFYRYAMGWYRQAPGTEREVVATITSGGSTYYADSVKGRFTISRDNAKNTVYLQMNSLKPEDTAVYYCAAESVWTWYYTTAGMDYWGQGTQVTVSS | high polyreactivity
16 | QVQLVESGGGLVQAGGSLRLSCAASGITFYRYMGWYRQAPGKERELVASITGRGGSTYYADSVKGRFTISRDNAKNTVYLQMNSLKPEDTAVYYCAARSYARPGGSRFDYWGQGTQVTVSS | high polyreactivity
17 | QVQLVESGGGLVQAGGSLRLSCAASGITFYRYTMGWYRQAPGKERELVATITSGASTSYADSVKGRFTISRDNAKNTVYLQMNSLKPEDTAVYYCAARRTRVTGRYSVYAFDYWGQGTQVTVSS | low polyreactivity
18 | QVQLVESGGGLVQAGGSLRLSCAASGITFYRYVMGWYRQAPGKERELVAAITTGDSTYYADSVKGRFTISRDNAKNTVYLQMNSLKPEDTAVYFCAAVYYTALANYDYWGQGTQVTVSS | low polyreactivity
19 | QVQLVESGGGLVQAGGSLRLSCAASGITFYTNAMGWYRQAPGKERELVAGISSSSGSTYYADSVKGRFTISRDNAKNTVYLQMNSLKPEDTAVYYCAADQDSTASDYKEYGYWGQGTQVTVSS | low polyreactivity
20 | QVQLVESGGGLVQAGGSLRLSCAASGITFYVKDMGWYRQAPGKEREFVAAISYRGGSTYYADSVKGRFTISRDNAKNTVYLQMNSLKPEDTAVYYCAADYNYWSPHRYDYWGQGTQVTVSW | low polyreactivity
21 | QVQLVESGGGLVQAGGSLRLSCAASGITFYVYALGWYRQAPGKARALVAANNYDSGSTYYADSEKGRFTISRDNAKNTVYIQKNSLKPEDTAGYYCATDGVNPFYAYDYWGQGTQVTVSS | low polyreactivity

Row | Sequence | polyreactivity (PSR sort gate)
22 | QVQLVESGGGLVQAGGSLRLSCAASGITFYVYTMGWDRQAPGKERELVAAITWSGGSTYYADSVKGRFTISRDNAKNTVYLQMKSLKPEDTAVYYCNRVGYWVGLDSWGQGTQVTVSS | high polyreactivity
23 | QVQLVESGGGLVQAGGSLRLSCAASGITFYWYAMGWYRQAPGKERELVAAITRSVGSTYYADSVKGRFSISRDNAKNPVYLQMNSLKPEDTAVYYCAADFYYYGFDYWGQGTQVTVSS | low polyreactivity
24 | QVQLVESGGGLVQAGGSLRLSCAASGITFYYNAMGWYRQAPGKERELVAAIRSAGSTYYADSVKGRFTISRDNAKNSVYVQMNSLKPEDTAVDYWGQGTQVTVSS | low polyreactivity
25 | QVQLVESGGGLVQAGGSLRLSCAASGITFYYNAMGWYRQAPGKERELVADISARGGSTYYADSVKGRFTISRDNAKNTVYLQMNCLIPEDTAVYYCNTYPKKKRPNEYDYWGQGTQVSVSS | high polyreactivity
26 | QVQLVESGGGLVQAGGSLRLSCAASGITFYYYAKGWYRQAPGKERELVSAISFRGGSTYYADSVKGRFTISRDNAKNSVYLQMNSLKPEDTAVYYCAAETSRSWYTWVSYDYWGQGTQVNVSS | high polyreactivity
27 | QVQLVESGGGLVQAGGSLRLSCAASGITFYYYAMGWYRQAPGKERELVASISQSGGSTYYAASVKGRFSISRDNAKNTVYLQMNSLKPEDTAVYYCAADPGRYYPMYYWGQGTQVTVSS | low polyreactivity
28 | QVQLVESGGGLVQAGGSLRLSCAASGITFYYYVMGWYRQAHGKERELVAAISNRGGSTYYADSVKGRFTISRDNAKNTVYLQMNSLKPDDTAVYYCAAYPLSGYDYWGQGTQVTVSS | high polyreactivity
29 | QVQLVESGGGLVQAGGSLRLSCAASGITIARYAMGWYRQAPGKERELVAAITRSGGRTYYADSVKGRFTISRDNAKITVYLQMKSLKPEDTAVYYCYNVTRGKNHGTKYDYWGQGTQVTVSS | high polyreactivity
30 | QVQLVESGGGLVQAGGSLRLSCAASGITIKYYTMGWYRQAPGKERELVAAISRSGGSTYYADSVKGRFTISRDNAKNTVYLQMNSLIPEDTAVYYCAAERGAYRGVTFTYGYWGQGTQVTVSS | high polyreactivity
31 | QVQLVESGGGLVQAGGSLRLSCAASGITILRYAMGWYRQAPGKERELVARITRSGGSTYYADSVKGRFTISRDNAKNTVYLQMNSLKPEDTAVYYCNDVRSAGDGDYWGQGTQVTVSS | high polyreactivity
32 | QVQLVESGGGLVQAGGSLRLSCAASGITINFYAMGWYRQAPGKERELVAAITQSGGSTYYADSVKGRFTISRDNAKNTVYLQMNRLKPEDTAVYYCAAARTGHMYYWGQGTQVTVSS | high polyreactivity
33 | QVQLVESGGGLVQAGGSLRLSCAASGITINYYAMGWYRQAPGKERELVATIRSGGGTYYADSVKGRFTISRDNAKNTVYLQMNSLKTEDTAVYYCASYTYPYYRYDYWGQGTQVTVSS | high polyreactivity
34 | QVQLVESGGGLVQAGGSLRLSCAASGITIRLYAKGWYRQAPGKERELVAGISSGGSTYYADSVKGRFTISRDNAKNTFYLQMNSLKPEDTAVYYCAAVSYGRRRPQHFEYWGQGTQVTVSS | high polyreactivity
35 | QVQLVESGGGLVQAGGSLRLSCAASGITIRRYAMGWYRQAPGKERELVAAISTSGGGTYYADSVKGRFTISRDNAKNTVYLQMNSLKPEDTAVYYCAARYLGYLLSGYPPYDYWGQGSQVTVSS | high polyreactivity
36 | QVQLVESGGGLVQAGGSLRLSCAASGITIYDNDMGWYRQAPWKERELVAGITRTTVGTYYADSVKGRFTISRDNAKNTVYLQMNSLKPEDTAVYYCAATSLAGYYQFDYWGQGTQVTVSS | low polyreactivity
37 | QVQLVESGGGLVQAGGSLRLSCAASGITLAGYVMGWYRQAPGKERELVADISSSGDSTYYADSVKGRFTISRDNAKNTVYLQMNSLKPEDTAVYYCADEEIIPLIYKGYPFDYWGQGTQVTVSS | low polyreactivity
38 | QVQLVESGGGLVQAGGSLRLSCAASGITLATNAMGLYRQAPGKERELVAAINSGGITKYADSVKGRFTISRDNEKNTVYLQMNSLKPEDTAVYYCAADLEPRTNAPGLPTPDGYYWGQGTQVTVSS | low polyreactivity
39 | QVQLVESGGGLVQAGGSLRLSCAASGITLDDYAMGWDRQARGKERELVAAISWSGGSTYYADSVKGRFTISRDNAKNTDYLQMNSLKPADTAVYYCAADPPFRYDYWGQGTQVTVSS | low polyreactivity
40 | QVQLVESGGGLVQAGGSLRLSCAASGITLDVNAMGWYRQAPGKERELVADITWSDDTTYYADSVKGRFTISRDNAKNTVYLQMNSLKPEDTAVYYCAADVSVSFHPRGYDYWGQGTQVTVSS | low polyreactivity
41 | QVQLVESGGGLVQAGGSLRLSCAASGITLHYYAMGWYRQAPGKEREFVAAISWTGGSTYYADSVKGRFTISRDTAKNTVYLQMNSLKPEDTAVYYCAAEGGAFRTYYYWGQGTQVTVSS | high polyreactivity
